According to patent publication US20230303994:
Numbering of substitutions follows the chain as printed.

B1: trypsin variant SEQ ID NO: 53 (protein)
chain: IVGGYTCAANSIPYQVSLNSGSHRCGGSLINSQWVVSAAHCYKPRIQVRLGEHNIDVLEGNEQFINAAKIITHPNFNGNTLDNDIMLIKLSSPATLNSRVATVSLPRSCAAAGTECLISGWGNTKSSGSSYPSLLQCLKAPVLSDSSCKSSYPGQITGNMICVGFLEGGKDACQGDSGGPVVCNGQLQGIVSSGYGCAQKNKPGVYTKVCNYVNWIQQTIAAN
B2: trypsin variant SEQ ID NO: 40 (protein)
chain: B1 chain with P44S, Y131E
B3: trypsin variant SEQ ID NO: 57 (protein)
chain: B1 chain with P44S, D56H
B4: trypsin variant SEQ ID NO: 80 (protein)
chain: B1 chain with P44S, D56H, G78P, R99H, R107T, K125S, Y131M
B5: trypsin variant SEQ ID NO: 88 (protein)
chain: B1 chain with D56H, G78P, R99H, R107T, K125S, Y131M, A172S
B6: trypsin variant SEQ ID NO: 32 (protein)
chain: B1 chain with P44S
B7: trypsin variant SEQ ID NO: 86 (protein)
chain: B1 chain with G78P, R99A, R107T, K125S, Y131M
B8: trypsin variant SEQ ID NO: 79 (protein)
chain: B1 chain with D56H, G78P, R99H, K125A, Y131M
B9: trypsin variant SEQ ID NO: 49 (protein)
chain: B1 chain with R24T, P44S
B10: trypsin variant SEQ ID NO: 85 (protein)
chain: B1 chain with D56H, G78P, R99H, R107T, K125C, Y131M
B11: trypsin variant SEQ ID NO: 45 (protein)
chain: B1 chain with P44S, A172C
B12: trypsin variant SEQ ID NO: 9 (protein)
chain: B1 chain with P44S, R99Y
B13: trypsin variant SEQ ID NO: 38 (protein)
chain: B1 chain with P44S, Y131C
B14: trypsin variant SEQ ID NO: 83 (protein)
chain: B1 chain with D56H, G78P, R99N, R107T, K125S, Y131M
B15: trypsin variant SEQ ID NO: 82 (protein)
chain: B1 chain with D56H, G78P, R99H, K125C, Y131M
B16: trypsin variant SEQ ID NO: 47 (protein)
chain: B1 chain with R24I, P44S
B17: trypsin variant SEQ ID NO: 50 (protein)
chain: B1 chain with R24N, P44S
B18: trypsin variant SEQ ID NO: 77 (protein)
chain: B1 chain with D56H, R99H, R107T, K125C, Y131M
B19: trypsin variant SEQ ID NO: 81 (protein)
chain: B1 chain with P44S, D56H, G78P, R99H, R107T, K125A, Y131M
B20: trypsin variant SEQ ID NO: 51 (protein)
chain: B1 chain with R24K, P44S
B21: trypsin variant SEQ ID NO: 73 (protein)
chain: B1 chain with P44S, G78A
B22: trypsin variant SEQ ID NO: 34 (protein)
chain: B1 chain with P44S, Y131A
B23: trypsin variant SEQ ID NO: 5 (protein)
chain: B1 chain with P44S, R99L
B24: trypsin variant SEQ ID NO: 42 (protein)
chain: B1 chain with P44S
B25: trypsin variant SEQ ID NO: 37 (protein)
chain: B1 chain with P44S, Y131T
B26: trypsin variant SEQ ID NO: 48 (protein)
chain: B1 chain with R24M, P44S
B27: trypsin variant SEQ ID NO: 74 (protein)
chain: B1 chain with P44S, G78P
B28: trypsin variant SEQ ID NO: 78 (protein)
chain: B1 chain with P44S, D56H, G78P, R99H, R107T, K125C
B29: trypsin variant SEQ ID NO: 84 (protein)
chain: B1 chain with D56H, G78P, R99N, R107T, K125S, Y131M, A172S
B30: trypsin variant SEQ ID NO: 33 (protein)
chain: B1 chain with P44S, R107T
B31: trypsin variant SEQ ID NO: 6 (protein)
chain: B1 chain with P44S, R99F
B32: trypsin variant SEQ ID NO: 35 (protein)
chain: B1 chain with P44S, Y131L
B33: trypsin variant SEQ ID NO: 46 (protein)
chain: B1 chain with R24A, P44S
B34: trypsin variant SEQ ID NO: 39 (protein)
chain: B1 chain with P44S, Y131N
B35: trypsin variant SEQ ID NO: 43 (protein)
chain: B1 chain with P44S, A172T
B36: trypsin variant SEQ ID NO: 10 (protein)
chain: B1 chain with P44S, R99T
B37: trypsin variant SEQ ID NO: 87 (protein)
chain: B1 chain with D56H, G78P, R99H, R107T, K125S, Y131M
B38: trypsin variant SEQ ID NO: 56 (protein)
chain: B1 chain with P44S, D56N
B39: trypsin variant SEQ ID NO: 44 (protein)
chain: B1 chain with P44S, A172S

These proteins were tested against pre-pro-human insulin.

| Protein | Activity PPI cleavage | Selectivity [%] |
| --- | --- | --- |
| B1 | yes | >90 |
| B2 | yes | >80 |
| B3 | yes | >90 |
| B4 | yes | >90 |
| B5 | yes | >90 |
| B6 | yes | >90 |
| B7 | yes | >90 |
| B8 | yes | >90 |
| B9 | yes | >80 |
| B10 | yes | >90 |
| B11 | yes | >65 |
| B12 | yes | >90 |
| B13 | yes | >80 |
| B14 | yes | >90 |
| B15 | yes | >90 |
| B16 | yes | >90 |
| B17 | yes | >65 |
| B18 | yes | >90 |
| B19 | yes | >90 |
| B20 | yes | >70 |

| Protein | Activity PPI cleavage | Selectivity [%] |
| --- | --- | --- |
| B21 | yes | >90 |
| B22 | yes | >90 |
| B23 | yes | >90 |
| B24 | yes | >90 |
| B25 | yes | >90 |
| B26 | yes | >80 |
| B27 | yes | >90 |
| B28 | yes | >80 |
| B29 | yes | >90 |
| B30 | yes | >90 |
| B31 | yes | >90 |
| B32 | yes | >90 |
| B33 | yes | >70 |
| B34 | yes | >90 |
| B35 | yes | >80 |
| B36 | yes | >90 |
| B37 | yes | >90 |
| B38 | yes | >90 |
| B39 | yes | >80 |

Each protein was assayed against pre-pro-insulin glargine.

| Protein | Purity Insulin Glargine [area %] | Yield [%] | desArg [area %] | desThr [area %] |
| --- | --- | --- | --- | --- |
| B1 | 81.3 | > 80 | < 0.5 | 2.1 |
| B3 | 87.5 | > 90 | < 0.5 | 2.3 |
| B4 | 90.1 | > 90 | 0.9 | 0.5 |
| B5 | 84.3 | > 90 | 0.7 | 1.9 |
| B7 | 79.3 | > 80 | 0.8 | 0.1 |
| B8 | 87.8 | > 90 | 0.7 | 0.3 |
| B10 | 85.4 | > 90 | 1.1 | 0.2 |
| B12 | 85.2 | > 90 | < 0.5 | 3.6 |
| B14 | 89 | > 90 | < 0.5 | 1.2 |
| B15 | 83.8 | > 80 | 0.6 | 0.3 |
| B18 | 88.2 | > 90 | 0.5 | 1.6 |
| B19 | 89.7 | > 90 | 1.2 | 0.5 |
| B21 | 83 | > 90 | < 0.5 | 2.2 |
| B27 | 82.4 | > 80 | < 0.5 | 2.1 |
| B28 | 85.1 | > 90 | 0.5 | 1.6 |
| B29 | 85.4 | > 90 | 0.6 | 1.6 |
| B36 | 82.7 | > 90 | < 0.5 | 2.6 |
| B37 | 83.8 | > 80 | 0.6 | 0.3 |
| B38 | 85.3 | > 90 | < 0.5 | 2 |
